T1: Boi2 SH3 (BOI2_YEAST), P39969
T1 chain: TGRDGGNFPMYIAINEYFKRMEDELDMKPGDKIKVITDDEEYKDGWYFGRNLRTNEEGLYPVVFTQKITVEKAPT

T2: Rvs167 SH3 (RV167_YEAST), P39743
T2 chain: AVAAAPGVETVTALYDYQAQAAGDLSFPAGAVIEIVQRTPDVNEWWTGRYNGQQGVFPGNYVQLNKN

T3: Yhr016c SH3 (YSC84_YEAST), P32793
T3 chain: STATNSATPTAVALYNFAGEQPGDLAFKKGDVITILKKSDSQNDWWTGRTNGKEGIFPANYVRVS

T4: Boi1 SH3 (BOI1_YEAST), P38041
T4 chain: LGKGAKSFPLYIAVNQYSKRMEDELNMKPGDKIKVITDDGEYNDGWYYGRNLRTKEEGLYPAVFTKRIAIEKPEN

T5: Yfr024 SH3 (LSB3_YEAST), P43603
T5 chain: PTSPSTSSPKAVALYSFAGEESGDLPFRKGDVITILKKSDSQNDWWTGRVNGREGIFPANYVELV


Assays:
Test in all cases: SPOT array
[1] = biological target: T1, Boi2 SH3 (BOI2_YEAST), P39969
[2] = biological target: T2, Rvs167 SH3 (RV167_YEAST), P39743
[3] = biological target: T3, Yhr016c SH3 (YSC84_YEAST), P32793
[4] = biological target: T4, Boi1 SH3 (BOI1_YEAST), P38041
[5] = biological target: T5, Yfr024 SH3 (LSB3_YEAST), P43603

Binder | normalised SPOT signal, Boehringer light units (BLU); mean over the file's lines of this peptide [1] | normalised SPOT signal, Boehringer light units (BLU); mean over the file's lines of this peptide [2] | normalised SPOT signal, Boehringer light units (BLU); mean over the file's lines of this peptide [3] | normalised SPOT signal, Boehringer light units (BLU); mean over the file's lines of this peptide [4] | normalised SPOT signal, Boehringer light units (BLU); mean over the file's lines of this peptide [5]
LRKPRAPMRNVIIT [YER141W 449-462] | 90.5 | 229 | 257 | 197 | 3330
LPPPIIPLRKYGHN [YGR233C 693-706] | 353 | 1930 | 18400 | 20400 | 15900
LPPPRSPNRPTLSD [YER158C 363-376] | 48500 | 15000 | 12200 | 53500 | 33900
LQIPPLPLKLLTPV [YGR204W 307-320] | 49.8 | 78.2 | 195 | 113 | 1670
LQNPLGPERTFLIM [YLR253W 491-504] | 32.9 | 27.6 | 49 | 121 | 197
LPVPPPPVRPSISF [YDL140C 239-252] | 51.2 | 769 | 3380 | 37.7 | 11400
LRDPVIPIKLAAEK [YGL195W 2564-2577] | 28.8 | 2.2 | 0 | 200 | 68.1
LPVPQLPPKLLVYP [YBR279W 17-30] | 57.9 | 64.4 | 196 | 375 | 4360
LRIPETPVKKSPLV [YJL187C 191-204] | 42 | 1.6 | 37.4 | 66.9 | 164

Reference: article PMC314469, “Protein Interaction Networks by Proteome Peptide Scanning” (PLoS Biology, 2004)
